Molecular target: T1, GST-ZW10 (full length GST-tagged human ZW10) (human, UniProt O43264 1-779)
T1 sequence (looked up): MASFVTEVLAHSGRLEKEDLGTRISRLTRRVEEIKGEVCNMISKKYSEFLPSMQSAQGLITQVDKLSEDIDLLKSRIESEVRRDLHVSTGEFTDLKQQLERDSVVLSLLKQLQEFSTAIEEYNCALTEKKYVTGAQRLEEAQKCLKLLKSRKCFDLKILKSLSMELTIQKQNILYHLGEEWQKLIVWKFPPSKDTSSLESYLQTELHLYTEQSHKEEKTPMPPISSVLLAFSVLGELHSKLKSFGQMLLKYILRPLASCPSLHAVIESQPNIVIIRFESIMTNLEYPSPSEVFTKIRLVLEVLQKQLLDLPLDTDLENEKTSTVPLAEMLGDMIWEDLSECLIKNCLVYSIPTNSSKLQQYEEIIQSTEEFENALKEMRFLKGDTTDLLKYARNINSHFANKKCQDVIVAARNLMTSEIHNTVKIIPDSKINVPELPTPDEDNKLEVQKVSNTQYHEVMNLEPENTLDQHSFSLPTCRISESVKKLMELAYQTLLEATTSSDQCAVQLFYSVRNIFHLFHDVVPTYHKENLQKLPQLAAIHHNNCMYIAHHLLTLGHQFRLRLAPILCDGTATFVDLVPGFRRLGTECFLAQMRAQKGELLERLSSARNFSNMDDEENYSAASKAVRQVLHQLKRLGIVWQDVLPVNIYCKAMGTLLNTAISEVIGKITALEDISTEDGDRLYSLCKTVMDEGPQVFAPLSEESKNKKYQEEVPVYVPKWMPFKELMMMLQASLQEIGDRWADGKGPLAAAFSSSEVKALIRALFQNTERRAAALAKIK
Assay: pull-down

binding result: binds
B1: His-tagged human Chmp4c (natural protein, UniProt Q96CF2 1-233, looked up)
chain: MSKLGKFFKGGGSSKSRAAPSPQEALVRLRETEEMLGKKQEYLENRIQREIALAKKHGTQNKRAALQALKRKKRFEKQLTQIDGTLSTIEFQREALENSHTNTEVLRNMGFAAKAMKSVHENMDLNKIDDLMQEITEQQDIAQEISEAFSQRVGFGDDFDEDELMAELEELEQEELNKKMTNIRLPNVPSSSLPAQPNRKPGMSSTARRSRAASSQRAEEEDDDIKQLAAWAT
